Square brackets hold non-standard residues; d marks the D form. Ends that are not written are not given here. * marks the point of attachment. Desaminotyrosyl = O=C(CCc1ccc(O)cc1)*; NMeY = CN[C@@H](Cc1ccc(O)cc1)C(=O)O; Nle = CCCC[C@H](N)C(=O)O; Orn = NCCC[C@H](N)C(=O)O; Abu = CC[C@H](N)C(=O)O; Aoc = NCCCCCCCC(=O)O; Ava = NCCCCC(=O)O

The IC50 is the concentration at which inhibition is half-maximal. Low values mean greater potency in that assay, high ones weaker potency in that assay.

T1: GHRH receptor of human pituitary membrane homogenates (human, UniProt Q02643 23-423)
T1 construct: whole, on cells; Native receptor in pituitary membrane homogenates, not intact cells; also called hGH-RH receptor
T1 sequence (looked up): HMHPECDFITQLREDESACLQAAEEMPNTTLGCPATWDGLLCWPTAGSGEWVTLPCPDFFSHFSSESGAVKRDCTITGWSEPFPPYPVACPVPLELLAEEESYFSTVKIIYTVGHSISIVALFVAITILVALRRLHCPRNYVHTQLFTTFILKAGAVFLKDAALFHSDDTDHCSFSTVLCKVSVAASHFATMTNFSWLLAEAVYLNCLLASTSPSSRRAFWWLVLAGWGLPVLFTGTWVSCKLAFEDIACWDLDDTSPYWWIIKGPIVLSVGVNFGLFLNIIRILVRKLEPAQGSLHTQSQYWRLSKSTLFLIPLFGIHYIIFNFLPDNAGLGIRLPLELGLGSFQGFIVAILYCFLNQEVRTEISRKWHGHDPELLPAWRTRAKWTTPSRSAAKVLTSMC

B1: [N-Me-Tyr^1, Orn^12, Abu^15, Orn^21, Nle^27, Asp^28, Amc^30]hGH-RH(1-30)NH2 (peptide)
peptide: [NMeY]ADAIFTNSYR[Orn]VL[Abu]QLSAR[Orn]LLQDI[Nle]DR[Aoc]-NH2
modifications: N-terminus assumed
SMILES: CCCC[C@H](NC(=O)[C@@H](NC(=O)[C@H](CC(=O)O)NC(=O)[C@H](CCC(N)=O)NC(=O)[C@H](CC(C)C)NC(=O)[C@H](CC(C)C)NC(=O)[C@H](CCCN)NC(=O)[C@H](CCCNC(=N)N)NC(=O)[C@H](C)NC(=O)[C@H](CO)NC(=O)[C@H](CC(C)C)NC(=O)[C@H](CCC(N)=O)NC(=O)[C@H](CC)NC(=O)[C@H](CC(C)C)NC(=O)[C@@H](NC(=O)[C@H](CCCN)NC(=O)[C@H](CCCNC(=N)N)NC(=O)[C@H](Cc1ccc(O)cc1)NC(=O)[C@H](CO)NC(=O)[C@H](CC(N)=O)NC(=O)[C@@H](NC(=O)[C@H](Cc1ccccc1)NC(=O)[C@@H](NC(=O)[C@H](C)NC(=O)[C@H](CC(=O)O)NC(=O)[C@H](C)NC(=O)[C@H](Cc1ccc(O)cc1)NC)[C@@H](C)CC)[C@@H](C)O)C(C)C)[C@@H](C)CC)C(=O)N[C@@H](CC(=O)O)C(=O)N[C@@H](CCCNC(=N)N)C(=O)NCCCCCCCC(N)=O
notes: also called Peptide 21301
B2: [Dat^1, Gln^8, Orn^12, Abu^15, Orn^21, Nle^27, Asp^28, Apa^30]hGH-RH(1-30)NH2 (peptide)
peptide: [Desaminotyrosyl]ADAIFTQSYR[Orn]VL[Abu]QLSAR[Orn]LLQDI[Nle]DR[Ava]-NH2
SMILES: CCCC[C@H](NC(=O)[C@@H](NC(=O)[C@H](CC(=O)O)NC(=O)[C@H](CCC(N)=O)NC(=O)[C@H](CC(C)C)NC(=O)[C@H](CC(C)C)NC(=O)[C@H](CCCN)NC(=O)[C@H](CCCNC(=N)N)NC(=O)[C@H](C)NC(=O)[C@H](CO)NC(=O)[C@H](CC(C)C)NC(=O)[C@H](CCC(N)=O)NC(=O)[C@H](CC)NC(=O)[C@H](CC(C)C)NC(=O)[C@@H](NC(=O)[C@H](CCCN)NC(=O)[C@H](CCCNC(=N)N)NC(=O)[C@H](Cc1ccc(O)cc1)NC(=O)[C@H](CO)NC(=O)[C@H](CCC(N)=O)NC(=O)[C@@H](NC(=O)[C@H](Cc1ccccc1)NC(=O)[C@@H](NC(=O)[C@H](C)NC(=O)[C@H](CC(=O)O)NC(=O)[C@H](C)NC(=O)CCc1ccc(O)cc1)[C@@H](C)CC)[C@@H](C)O)C(C)C)[C@@H](C)CC)C(=O)N[C@@H](CC(=O)O)C(=O)N[C@@H](CCCNC(=N)N)C(=O)NCCCCC(N)=O
notes: also called Peptide 22327
B3: [Dat^1, D-Ala^2, Orn^12, Abu^15, Orn^21, Nle^27, Asp^28]hGH-RH(1-29)NH-CH3 (peptide)
peptide: [Desaminotyrosyl][dA]DAIFTNSYR[Orn]VL[Abu]QLSAR[Orn]LLQDI[Nle]DR-NHMe
SMILES: CCCC[C@H](NC(=O)[C@@H](NC(=O)[C@H](CC(=O)O)NC(=O)[C@H](CCC(N)=O)NC(=O)[C@H](CC(C)C)NC(=O)[C@H](CC(C)C)NC(=O)[C@H](CCCN)NC(=O)[C@H](CCCNC(=N)N)NC(=O)[C@H](C)NC(=O)[C@H](CO)NC(=O)[C@H](CC(C)C)NC(=O)[C@H](CCC(N)=O)NC(=O)[C@H](CC)NC(=O)[C@H](CC(C)C)NC(=O)[C@@H](NC(=O)[C@H](CCCN)NC(=O)[C@H](CCCNC(=N)N)NC(=O)[C@H](Cc1ccc(O)cc1)NC(=O)[C@H](CO)NC(=O)[C@H](CC(N)=O)NC(=O)[C@@H](NC(=O)[C@H](Cc1ccccc1)NC(=O)[C@@H](NC(=O)[C@H](C)NC(=O)[C@H](CC(=O)O)NC(=O)[C@@H](C)NC(=O)CCc1ccc(O)cc1)[C@@H](C)CC)[C@@H](C)O)C(C)C)[C@@H](C)CC)C(=O)N[C@@H](CC(=O)O)C(=O)N[C@@H](CCCNC(=N)N)C(=O)NC
B4: [Dat^1, Gln^8, Orn^12, Abu^15, Orn^21, Nle^27, Asp^28]hGH-RH(1-29)NH-CH3 (peptide)
peptide: [Desaminotyrosyl]ADAIFTQSYR[Orn]VL[Abu]QLSAR[Orn]LLQDI[Nle]DR-NHMe
SMILES: CCCC[C@H](NC(=O)[C@@H](NC(=O)[C@H](CC(=O)O)NC(=O)[C@H](CCC(N)=O)NC(=O)[C@H](CC(C)C)NC(=O)[C@H](CC(C)C)NC(=O)[C@H](CCCN)NC(=O)[C@H](CCCNC(=N)N)NC(=O)[C@H](C)NC(=O)[C@H](CO)NC(=O)[C@H](CC(C)C)NC(=O)[C@H](CCC(N)=O)NC(=O)[C@H](CC)NC(=O)[C@H](CC(C)C)NC(=O)[C@@H](NC(=O)[C@H](CCCN)NC(=O)[C@H](CCCNC(=N)N)NC(=O)[C@H](Cc1ccc(O)cc1)NC(=O)[C@H](CO)NC(=O)[C@H](CCC(N)=O)NC(=O)[C@@H](NC(=O)[C@H](Cc1ccccc1)NC(=O)[C@@H](NC(=O)[C@H](C)NC(=O)[C@H](CC(=O)O)NC(=O)[C@H](C)NC(=O)CCc1ccc(O)cc1)[C@@H](C)CC)[C@@H](C)O)C(C)C)[C@@H](C)CC)C(=O)N[C@@H](CC(=O)O)C(=O)N[C@@H](CCCNC(=N)N)C(=O)NC
notes: also called Peptide 27407
B5: [Dat^1, D-Ala^2, Orn^12, Abu^15, Orn^21, Nle^27, Asp^28, Amc^30]hGH-RH(1-30)NH2 (peptide)
peptide: [Desaminotyrosyl][dA]DAIFTNSYR[Orn]VL[Abu]QLSAR[Orn]LLQDI[Nle]DR[Aoc]-NH2
SMILES: CCCC[C@H](NC(=O)[C@@H](NC(=O)[C@H](CC(=O)O)NC(=O)[C@H](CCC(N)=O)NC(=O)[C@H](CC(C)C)NC(=O)[C@H](CC(C)C)NC(=O)[C@H](CCCN)NC(=O)[C@H](CCCNC(=N)N)NC(=O)[C@H](C)NC(=O)[C@H](CO)NC(=O)[C@H](CC(C)C)NC(=O)[C@H](CCC(N)=O)NC(=O)[C@H](CC)NC(=O)[C@H](CC(C)C)NC(=O)[C@@H](NC(=O)[C@H](CCCN)NC(=O)[C@H](CCCNC(=N)N)NC(=O)[C@H](Cc1ccc(O)cc1)NC(=O)[C@H](CO)NC(=O)[C@H](CC(N)=O)NC(=O)[C@@H](NC(=O)[C@H](Cc1ccccc1)NC(=O)[C@@H](NC(=O)[C@H](C)NC(=O)[C@H](CC(=O)O)NC(=O)[C@@H](C)NC(=O)CCc1ccc(O)cc1)[C@@H](C)CC)[C@@H](C)O)C(C)C)[C@@H](C)CC)C(=O)N[C@@H](CC(=O)O)C(=O)N[C@@H](CCCNC(=N)N)C(=O)NCCCCCCCC(N)=O
notes: also called Peptide 21300
B6: [Dat^1, Gln^8, His^11, Orn^12, Abu^15, His^20, Orn^21, Nle^27, Asp^28]hGH-RH(1-29)NH-CH3 (peptide)
peptide: [Desaminotyrosyl]ADAIFTQSYH[Orn]VL[Abu]QLSAH[Orn]LLQDI[Nle]DR-NHMe
SMILES: CCCC[C@H](NC(=O)[C@@H](NC(=O)[C@H](CC(=O)O)NC(=O)[C@H](CCC(N)=O)NC(=O)[C@H](CC(C)C)NC(=O)[C@H](CC(C)C)NC(=O)[C@H](CCCN)NC(=O)[C@H](Cc1c[nH]cn1)NC(=O)[C@H](C)NC(=O)[C@H](CO)NC(=O)[C@H](CC(C)C)NC(=O)[C@H](CCC(N)=O)NC(=O)[C@H](CC)NC(=O)[C@H](CC(C)C)NC(=O)[C@@H](NC(=O)[C@H](CCCN)NC(=O)[C@H](Cc1c[nH]cn1)NC(=O)[C@H](Cc1ccc(O)cc1)NC(=O)[C@H](CO)NC(=O)[C@H](CCC(N)=O)NC(=O)[C@@H](NC(=O)[C@H](Cc1ccccc1)NC(=O)[C@@H](NC(=O)[C@H](C)NC(=O)[C@H](CC(=O)O)NC(=O)[C@H](C)NC(=O)CCc1ccc(O)cc1)[C@@H](C)CC)[C@@H](C)O)C(C)C)[C@@H](C)CC)C(=O)N[C@@H](CC(=O)O)C(=O)N[C@@H](CCCNC(=N)N)C(=O)NC
notes: also called Peptide 27413

In the assay the target is T1, GHRH receptor of human pituitary …. As to the kind of experiment: radioligand competition, 125I-JV-1-42 (~0.2 nM) as competitor, human pituitary membrane homogenates. An excerpt: Normal human pituitaries were purchased from the National Hormone and Peptide Program (A. F. Parlow, Los Angeles, County Harbor-UCLA Medical Center, Torrance, Calif.).
A general note: Displacement assays read how much labelled ligand stays bound in the presence of the test substance.
Regarding B1, the concentration for half-maximal inhibition (IC50) is 2.99 nM and the “Relative affinity (Binding potency) vs JI-38” value (from here on “Relative affinity”) is 1.45 fold, JI-38 = 1.

B2: the half-maximal inhibitory concentration (IC50) worked out at 1.99 nM and the “Relative affinity” value was 2.18 fold, JI-38 = 1. Turning to [NMeY]ADAIFTQSYR[Orn]VL[Abu]QLSAR[Orn]LLQDI[Nle]DR[Ava]-NH2 (also called Peptide 22325) [[N-Me-Tyr^1, Gln^8, Orn^12, Abu^15, Orn^21, Nle^27, Asp^28, Apa^30]hGH-RH(1-30)NH2], the half-inhibitory concentration (IC50) was found to be 3.8 nM and the “Relative affinity” value was 1.14 fold, JI-38 = 1.

As for B3, the IC50 was 3.35 nM and the “Relative affinity” value is 1.3 fold, JI-38 = 1. [NMeY][dA]DAIFTQSYR[Orn]VL[Abu]QLSAR[Orn]LLQDI[Nle]DR-NHEt (also called Peptide 28420) [[N-Me-Tyr^1, D-Ala^2, Gln^8, Orn^12, Abu^15, Orn^21, Nle^27, Asp^28]hGH-RH(1-29)NH-CH2-CH3]: the “Relative affinity” value was 8.37 fold, JI-38 = 1.

Regarding B4, the IC50 is 3 nM and the “Relative affinity” value was 1.45 fold, JI-38 = 1. For B5, the half-inhibitory concentration (IC50) came to 3.61 nM and the “Relative affinity” value is 1.2 fold, JI-38 = 1. In the case of [NMeY][dA]DAIFTTSYR[Orn]VL[Abu]QLSAR[Orn]LLQDI[Nle]DR-NHMe [[N-Me-Tyr^1, D-Ala^2, Thr^8, Orn^12, Abu^15, Orn^21, Nle^27, Asp^28]hGH-RH(1-29)NH-CH3], the half-inhibitory concentration (IC50) turned out to be 0.83 nM and the “Relative affinity” value is 5.24 fold, JI-38 = 1.

Take [NMeY]ADAIFTQSYR[Orn]VL[Abu]QLSAR[Orn]LLQDI[Nle]DR-NHMe (also called Peptide 27406) [[N-Me-Tyr^1, Gln^8, Orn^12, Abu^15, Orn^21, Nle^27, Asp^28]hGH-RH(1-29)NH-CH3]: the IC50 was determined as 0.3 nM and the “Relative affinity” value is 14.5 fold, JI-38 = 1. With B6, the IC50 came out at 2.45 nM and the “Relative affinity” value was 1.78 fold, JI-38 = 1. As for [NMeY]ADAIFTQSYR[Orn]VL[Abu]QLSAR[Orn]LLQDI[Nle]SR-NHMe [[N-Me-Tyr^1, Gln^8, Orn^12, Abu^15, Orn^21, Nle^27]hGH-RH(1-29)NH-CH3], the IC50 came out at 1.08 nM and the “Relative affinity” value was 4.03 fold, JI-38 = 1.

For the origin of these results see patent US20140058068A1 (UNIVERSITY OF MIAMI, published 2014).
